From IntAct's records for PubMed 18458160

B1: KN motif and ankyrin repeat domain-containing protein 1 (Homo sapiens), Q14678-2 (parent)
chain: METRRRLEQERATMQMTPGEFRRPRLASFGGMGTTSSLPSFVGSGNHNPAKHQLQNGYQGNGDYGSYAPAAPTTSSMGSSIRHSPLSSGISTPVTNVSPMHLQHIREQMAIALKRLKELEEQVRTIPVLQVKISVLQEEKRQLVSQLKNQRAASQINVCGVRKRSYSAGNASQLEQLSRARRSGGELYIDYEEEEMETVEQSTQRIKEFRQLTADMQALEQKIQDSSCEASSELRENGECRSVAVGAEENMNDIVVYHRGSRSCKDAAVGTLVEMRNCGVSVTEAMLGVMTEADKEIELQQQTIESLKEKIYRLEVQLRETTHDREMTKLKQELQAAGSRKKVDKATMAQPLVFSKVVEAVVQTRDQMVGSHMDLVDTCVGTSVETNSVGISCQPECKNKVVGPELPMNWWIVKERVEMHDRCAGRSVEMCDKSVSVEVSVCETGSNTEESVNDLTLLKTNLNLKEVRSIGCGDCSVDVTVCSPKECASRGVNTEAVSQVEAAVMAVPRTADQDTSTDLEQVHQFTNTETATLIESCTNTCLSTLDKQTSTQTVETRTVAVGEGRVKDINSSTKTRSIGVGTLLSGHSGFDRPSAVKTKESGVGQININDNYLVGLKMRTIACGPPQLTVGLTASRRSVGVGDDPVGESLENPQPQAPLGMMTGLDHYIERIQKLLAEQQTLLAENYSELAEAFGEPHSQMGSLNSQLISTLSSINSVMKSASTEELRNPDFQKTSLGKITGNYLGYTCKCGGLQSGSPLSSQTSQPEQEVGTSEGKPISSLDAFPTQEGTLSPVNLTDDQIAAGLYACTNNESTLKSIMKKKDGNKDSNGAKKNLQFVGINGGYETTSSDDSSSDESSSSESDDECDVIEYPLEEEEEEEDEDTRGMAEGHHAVNIEGLKSARVEDEMQVQECEPEKVEIRERYELSEKMLSACNLLKNTINDPKALTSKDMRFCLNTLQHEWFRVSSQKSAIPAMVGDYIAAFEAISPDVLRYVINLADGNGNTALHYSVSHSNFEIVKLLLDADVCNVDHQNKAGYTPIMLAALAAVEAEKDMRIVEELFGCGDVNAKASQAGQTALMLAVSHGRIDMVKGLLACGADVNIQDDEGSTALMCASEHGHVEIVKLLLAQPGCNGHLEDNDGSTALSIALEAGHKDIAVLLYAHVNFAKAQSPGTPRLGRKTSPGPTHRGSFD
B2: KN motif and ankyrin repeat domain-containing protein 1 (Homo sapiens), Q14678-2 (parent)
chain: B1 chain
partner: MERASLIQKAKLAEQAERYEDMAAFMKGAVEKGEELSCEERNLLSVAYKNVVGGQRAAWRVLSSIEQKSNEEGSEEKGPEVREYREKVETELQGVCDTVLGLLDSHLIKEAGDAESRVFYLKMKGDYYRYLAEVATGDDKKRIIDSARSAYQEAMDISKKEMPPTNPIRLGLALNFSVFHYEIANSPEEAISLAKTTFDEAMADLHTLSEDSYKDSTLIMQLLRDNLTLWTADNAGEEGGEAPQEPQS
B3: KN motif and ankyrin repeat domain-containing protein 1 (Homo sapiens), Q14678-2 (parent)
chain: B1 chain
partner: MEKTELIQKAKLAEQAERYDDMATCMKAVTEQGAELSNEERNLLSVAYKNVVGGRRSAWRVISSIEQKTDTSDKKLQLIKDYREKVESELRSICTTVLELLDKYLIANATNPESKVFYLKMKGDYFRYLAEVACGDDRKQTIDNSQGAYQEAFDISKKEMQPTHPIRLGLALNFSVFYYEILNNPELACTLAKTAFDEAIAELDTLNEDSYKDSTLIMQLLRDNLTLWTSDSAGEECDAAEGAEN
B4: KN motif and ankyrin repeat domain-containing protein 1 (Homo sapiens), Q14678-2 (parent)
chain: B1 chain
partner: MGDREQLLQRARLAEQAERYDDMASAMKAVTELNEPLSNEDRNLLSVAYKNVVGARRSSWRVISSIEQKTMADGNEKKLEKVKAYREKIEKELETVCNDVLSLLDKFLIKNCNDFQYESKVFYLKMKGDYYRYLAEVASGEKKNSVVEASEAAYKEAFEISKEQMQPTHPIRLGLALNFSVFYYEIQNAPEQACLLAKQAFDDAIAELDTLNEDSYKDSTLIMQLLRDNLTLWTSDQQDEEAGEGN
B5: KN motif and ankyrin repeat domain-containing protein 1 (Homo sapiens), Q14678-2 (parent)
chain: B1 chain
partner: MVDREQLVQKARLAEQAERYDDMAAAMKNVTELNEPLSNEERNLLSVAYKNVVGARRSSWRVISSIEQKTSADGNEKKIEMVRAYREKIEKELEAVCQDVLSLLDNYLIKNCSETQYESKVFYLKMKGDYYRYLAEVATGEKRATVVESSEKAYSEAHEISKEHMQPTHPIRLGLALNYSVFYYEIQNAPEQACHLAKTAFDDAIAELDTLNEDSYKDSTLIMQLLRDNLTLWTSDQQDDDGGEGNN

Variants of: B1
Settings: with 1433z_human YWHAZ

Row | effect of a mutation on the interaction | Variant
1 | disrupting interaction | S167A

Variants of: B1
Settings: with 1433e_human YWHAE

Row | effect of a mutation on the interaction | Variant
2 | disrupting interaction | S167A

Variants of: B1
Settings: with 1433b_human YWHAB

Row | effect of a mutation on the interaction | Variant
3 | disrupting interaction | S167A

Variants of: B2
Settings: with 1433s_human SFN

Row | effect of a mutation on the interaction | Variant
4 | disrupting interaction | S167A

Variants of: B3
Settings: with 1433t_human YWHAQ

Row | effect of a mutation on the interaction | Variant
5 | disrupting interaction | S167A

Variants of: B4
Settings: with 1433f_human YWHAH

Row | effect of a mutation on the interaction | Variant
6 | disrupting interaction | S167A

Variants of: B5
Settings: with 1433g_human YWHAG

Row | effect of a mutation on the interaction | Variant
7 | disrupting interaction | S167A
